Consider one molecule from PMC6179936 (Journal of immunology (Baltimore, Md. : 1950), 2018).

Where no end group is shown, it is not given here. The star is where a group is joined. X1 = 2,3‑bis(palmitoyloxy)‑(2RS)‑propyl, CCCCCCCCCCCCCCCC(=O)OCC(C*)OC(=O)CCCCCCCCCCCCCCC; Palmitoyl = CCCCCCCCCCCCCCCC(=O)*

This assay addresses T1, Recombinant human SAA1 made in human embryonic kidney (HEK) cells (human, UniProt P0DJI8 19-122).
T1 sequence (looked up): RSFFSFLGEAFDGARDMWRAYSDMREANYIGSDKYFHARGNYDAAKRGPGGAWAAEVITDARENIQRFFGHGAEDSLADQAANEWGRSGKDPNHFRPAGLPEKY
Kind of assay: retention on a 3 kDa cutoff centrifugal filter, read by TNFα from J774 cells.

In the case of Palmitoyl-C(X1)SKKKK [Pam3CSK4, synthetic triacylated lipopeptide], the binding result was “binds”.
